Measured values from paper PMC6681757.

Key:
[1] = molecular target: isolated bovine cardiac native thin filaments (NTFs) (bovine) (UniProt Q3ZC07); assay: co-sedimentation; high-velocity cosedimentation with isolated bovine cardiac NTFs, absence of calcium (pCa 9)
[2] = molecular target: isolated bovine cardiac native thin filaments (NTFs) (bovine) (UniProt Q3ZC07)
[3] = molecular target: myosin S2Δ, the first 126 amino acids of myosin S2 (cardiac myosin); assay: MST; C1mC2 species (or native full-length cMyBP-C) titrated against myosin S2Δ; normalized MST curves; conditions in SI Appendix
[4] = molecular target: isolated bovine cardiac native thin filaments (NTFs) (bovine) (UniProt Q3ZC07); assay: co-sedimentation; high-velocity cosedimentation with isolated bovine cardiac NTFs, presence of 32 μmol/L CaCl2 (pCa 4.5)
[5] = molecular target: myosin S2Δ, the first 126 amino acids of myosin S2 (cardiac myosin)

Row | Substance | Kd [1] [µM] | EC50 of activation of NTF-stimulated myosin S1 ATPase in the absence of calcium (pCa 9) [2] [μmol/L] | Kd [3] [µM] | further results
1 | C1mC2 bis-phosphorylated by PKA on S288 and S279 (C1mC2-2P) (domain or fragment) | 20 | 5 |  | 
2 | C1mC2 monophosphorylated on S288 (C1mC2-1P) (domain or fragment) | 20 | 2 | 30 | 
3 | C1mC2 monophosphorylated on S308 by PKCε (domain or fragment) | 20 |  | 30 | 
4 | C1mC2 tris-phosphorylated by PKA on S288, S279 and S313 (C1mC2-3P) (domain or fragment) | 60 |  |  | Kd [4]: 60 µM
5 | C1mC2, recombinant fragment of rat cardiac myosin binding protein-C containing domains C1, the m-motif and C2, unphosphorylated (domain or fragment) | 20 | 1 |  | EC50 of activation of thick filament structure (RLC BC probe orientation) in ventricular trabeculae, pCa 9 [5]: 10 μmol/L; IC50 of inhibition of NTF-stimulated myosin S1 ATPase in the absence of calcium (pCa 9), [C1mC2] > 2 μmol/L [2]: 3 μmol/L; IC50 of inhibition of myosin S1-NTF ATPase during full calcium activation (pCa 4) [2]: 2 μmol/L; maximal inhibition of myosin S1-NTF ATPase during full calcium activation (pCa 4) [2]: 50%; KD of the high-affinity binding site [3]: 20.7 µM; KD of the low-affinity binding site [3]: > 400 µM
6 | C1mC2-S288A, unphosphorylated (domain or fragment) |  |  | 20 | 
7 | λ-protein phosphatase–treated native full-length cMyBP-C isolated from rat ventricular tissue (from UniProt P56741 1-1274) (natural protein) |  |  | 24.2 | 
